Reference: patent US20240043504A1 (published 2024)
Positions count from the first letter of the chain named.

Key:
[1] = molecular target: SARS-COV-2 RBD extracellular domain expressed with a C-terminal mouse IgG2a (SARS-CoV-2); experiment: SPR Biacore, mAb captured via anti-hFc, 25 C
[2] = molecular target: SARS-COV-2 RBD extracellular domain expressed with a C-terminal mouse IgG2a (SARS-COV-2 RBD-mFc) (SARS-CoV-2); experiment: SPR, captured mAb, RBD-mFc in solution, 37 C

B1: mAb10989 (antibody, V domains shown)
VH: QVQLVQSGAEVKKPGASVKVSCKASGYIFTGYYMHWVRQAPGQGLEWMGWINPNSGGANYAQKFQGRVTLTRDTSITTVYMELSRLRFDDTAVYYCARGSRYDWNQNNWFDPWGQGTLVTVSS
VL: QSALTQPASVSGSPGQSITISCTGTSSDVGTYNYVSWYQQHPGKAPKLMIFDVSNRPSGVSDRFSGSKSGNTASLTISGLQAEDEADYYCSSFTTSSTVVFGGGTKLTVLG
Kd [1]: 0.00895 nM
t½ [1]: 2 h

B2: mAb10932 (antibody, V domains shown)
VH: EVQLVESGGGLVQSGGSLRLSCAASGLTVSSNYMSWVRQAPGKGLEWVSVIYSGGSTFYSDSVKGRFTISRHNSKNTLYLQMNSLRAEDTAVYYCARARGDAFDIWGQGTMVTVSS
VL: not shown
Kd [2]: 0.153 nM
koff [2]: 6.86e-05 s⁻¹
kon [2]: 448000 M⁻¹ s⁻¹
t½ [2]: 2.81 h

B3: mAb10982 (antibody, V domains shown)
VH: EVQLVESGGGLVQPGGSLRLSCAASGLTVSSNYMSWVRQAPGKGLEWVSVIYSGGTTYYADSVKGRFTISRHNSKNTLSLQMNSLRAEDTAVYYCARGEGANYYGMDVWGQGTTVTVSS
VL: QSVLTQPPSVSGAPGQRVTISCTGSSSNIGTGYDVHWYQQLPGTAPKLLIYGNSNRPSGVPDRFSGSKSGTSASLAITGLQAEDEADYYCQSYDSSLSGYVVFGGGTKLTVLG
Kd [1]: 0.0886 nM
koff [1]: 8.06e-05 s⁻¹
kon [1]: 910000 M⁻¹ s⁻¹
t½ [1]: 2.39 h

B4: mAb10986 (antibody, V domains shown)
VH: EVQLVESGGGLVQPGGSLRLSCAASEFTVSSNYMSWVRQAPGKGLEWVSVIYSGGSTFYADSVKGRFTISRDNSKNTLYLQMNSLRAEDTAVYYCARALPYGDLHFDYWGQGTLVTVSS
VL: B3 VL with S54T, G99D, Y100S, V101Y, G105T, L109V
Kd [1]: 0.00888 nM
t½ [1]: 8.02 h

B5: mAb10985 (antibody, V domains shown)
VH: EVQLVESGGGLVQPGRSLRLSCAASGFTFDDYAMHWVRQAPGKGLEWVSGISWNRGSIGYADSVKGRFTISRDNAKNSLYLQMSSLRAEDTALYYCAKDGERWDSVVVPSARNGMDVWGQGTTVTVSS
VL: B3 VL with T31A, Y100S, V101Y, G105T, L109V
Kd [1]: 0.0105 nM
t½ [1]: 2.26 h

B6: mAb11006 (antibody, V domains shown)
VH: EVQLVESGGGLVQPGGSLRLSCAASGFIVSRNYMSWVRQAPGKGLEWVSVIYSGGSTFYADSVKGRFTISRHNSKNTLYLQMNSLKAEDTAVYYCARELRGYFDYWGQGTLVTVSS
VL: DIQLTQSPSFLSASVGDRVTITCWASQGISSYLAWYQQKPGKAPKLLIYAASTLQSGVPSRFSGSGSGTEFTLTISSLQPEDFATYYCQLLNSYPYTFGQGTKLEIKR
Kd [1]: 0.158 nM
t½ [1]: 3.69 h

B7: mAb10915 (antibody, V domains shown)
VH: B6 VH with I28T, R31S, S35N, K86R, A87P, E98D, R100G
VL: not shown
Kd [2]: 0.156 nM
t½ [2]: 2.79 h

B8: mAb10914 (antibody, V domains shown)
VH: EVQLVESGGGLVQPGGSLRLSCAASGLIVSRNYMIWVRQAPGKGLEWVSVIYSGGSTFYADSVKGRFTISRHNSKNTLYLQMNSLRAEDTAVYYCARDLGTGGMDVWGQGTTVTVSS
VL: B6 VL with L90Q, Y96L, Q100G, L104V
Kd [2]: 0.318 nM
t½ [2]: 0.875 h

B9: mAb11008 (antibody, V domains shown)
VH: EVQLVESGGGLVQPGGSLRLSCAASGFTVSSNYMTWVRQAPGKGLEWVSVIYSGGSTFYADSVKGRFTISRHNSENTLYLQMNSLRAEDTAVYYCARDLAAAGTDYWGQGALVTVSS
VL: B6 VL with E81D, L90H, P95L
Kd [1]: 0.492 nM
koff [1]: 0.000192 s⁻¹
kon [1]: 390000 M⁻¹ s⁻¹
t½ [1]: 1 h

B10: mAb10934 (antibody, V domains shown)
VH: not shown
VL: DIQMTQSPSSLSASVGDRVTITCQASQDIWNYINWYQQKPGKAPKLLIYDASNLKTGVPSRFSGSGSGTDFTFTISSLQPEDIATYYCQQHDDLPPTFGQGTKVEIKR
Kd [2]: 0.0216 nM
t½ [2]: 0.657 h

B11: mAb10935 (antibody, V domains shown)
VH: EVQLVESGGGLVQPGGSLRLSCAASGFTVSSNYMSWVRQAPGKGLEWVSLIYSGGSTYYADSVKGRFTISRHNSKNTLYLQMNSLRSEDTAVYYCARVPLGDYYYGMDVWGQGTTVTVSS
VL: B10 VL with W30N, N31K, I33L, K55E, H91S, D93N, P96L, Q100G
Kd [2]: 0.0869 nM
koff [2]: 0.000494 s⁻¹
kon [2]: 5.68e+06 M⁻¹ s⁻¹
t½ [2]: 0.39 h

B12: mAb11010 (antibody, V domains shown)
VH: QVQLVESGGGVVQPGRSLRLSCAASGFTFSSYGMHWVRQAPGKGLEWVAVISYDGSYKYYADSVKGRFTISRDNSKNTLYLQMNSLRAEDTAVYYCAIDGGTVTTIFDYWGQGTLVTVSS
VL: not shown
Kd [1]: 0.0789 nM
t½ [1]: 2.14 h

B13: mAb10930 (antibody, V domains shown)
VH: EVQLVESGGGLVQPGRSLRLSCAASGFTFDDYAMYWVRQAPGKGLEWVSGISWNSGSIGYADSVKGRFTISRDNAKNSLYLQMNSLRAADTALYYCAKDKDWNSRGYYYYGMDVWGQGTTVTVSS
VL: not shown
Kd [2]: 0.399 nM
koff [2]: 0.000597 s⁻¹
kon [2]: 1.49e+06 M⁻¹ s⁻¹
t½ [2]: 0.322 h

B14: mAb11002 (antibody, V domains shown)
VH: EVQLVESGGGLVQPGGSLRLSCAASGFTVSSNYMSWVRQAPGKGLEWVSVIYSGGSTFYADSVKGRFTISRHNSKNTLYLQMNSLRAEDTAVYYCAREGYGMDVWGQGTTVTVSS
VL: not shown
Kd [1]: 4.46 nM
t½ [1]: 0.0783 h

B15: mAb10920 (antibody, V domains shown)
VH: QVQLVESGGGVVQPGRSLRLSCAASGFTFSYYGMHWVRQAPGKGLEWVAVIWYDGSNKFYADSVKGRFTISRDNSKNTLYLQMNSLRAEDTAVYYCAAARPGYYYGMDVWGQGTTVTVSS
VL: DIQMTQSPSSLSASVGDRVTITCRASQGISNYLAWFQQKPGKAPNSLIYAASSLQRGVPSKFSGSGSGTDFTLTISSLQPEDFATYYCQQYNSYPRTFGQGTKVEIKR
Kd [2]: 0.119 nM
t½ [2]: 0.255 h

B16: mAb10998 (antibody, V domains shown)
VH: EVQLVESGGGLVHPGGSLRLSCAASGLTVSSNYMSWVRQAPGKGLEWVSVIYSGGSTYYADSVKGRFTISRHNSKNTLFLQMNSLRAEDTAVYYCARDRPITGTTLDVWGQGTTVTVSS
VL: DIQMTQSPSSLFASVGDRVTITCRASQSISSYLNWYQQKPGKAPKLLIYAASSLQSGVPSRFSGSGSGTDFTLTISSLQPEDFAFYYCQQTYSTPPITFGQGTRLEIKR
Kd [1]: 2.44 nM
koff [1]: 0.00358 s⁻¹
kon [1]: 1.47e+06 M⁻¹ s⁻¹
t½ [1]: 0.0533 h

B17: mAb10921 (antibody, V domains shown)
VH: EVQLVESGGGLVQPGGSLRLSCAASGITVSSNYMSWVRQAPGKGLEWVSVIYSGGSTFYADSVKGRFTISRHNSKNTLYLQMNSLRAEDTAVYYCARERNFDAFDIWGQGTMVTVSS
VL: DIQMTQSPSSVSASVGDRVTITCRASQGISSWLAWYQQKPGKAPKLLIYAASSLQSGVPSRFSGSGSGTDFTLTISSLQPEDFATYYCQQANSFPLFTFGPGTKVDIKR
Kd [2]: 0.273 nM
koff [2]: 0.000125 s⁻¹
kon [2]: 458000 M⁻¹ s⁻¹
t½ [2]: 1.54 h

B18: mAb10923 (antibody, V domains shown)
VH: QVQLVQSGAEVKKPGASVKVSCKASGYTFINYYIHWVRQAPGQGLEWMGWINPNSGGTNYAQKFQGRVTMTRDTSISTAYMELSRLRSDDTAVYYCAIITIFGVVTWFDPWGQGTLVTVSS
VL: not shown
Kd [2]: 0.0336 nM
koff [2]: 0.000185 s⁻¹
kon [2]: 5.53e+06 M⁻¹ s⁻¹
t½ [2]: 1.04 h

B19: mAb10913 (antibody, V domains shown)
VH: EVQLVESGGGLVQPGGSLRLSCAASGFTFRNYEMNWVRQAPGKGLEWVSYITSSGSTMYYADSVKGRFTISRDNAKNSLYLQMNSLRAEDTAVYYCARDGFYYYYAMDVWGQGTTVTVSS
VL: QSVLTQPPSVSAAPGQKVTISCSGSSSNIGNNYVSWYQQLPGTAPKLLIYDNNKRPSGIPDRFSGSKSGTSATLGITGLQTGDEADYYCGTWDSSLSVGRVFGTGTKVTVLG
Kd [2]: 0.274 nM
koff [2]: 0.00173 s⁻¹
kon [2]: 6.32e+06 M⁻¹ s⁻¹
t½ [2]: 0.112 h

B20: mAb10936 (antibody, V domains shown)
VH: QVQLVESGGGVVQPGRSLRLSCAASGFTFRNYGMHWVRQAPGKGLEWVSVIWYDGSNRYYADSVKGRFTISRDTSKNTLYLQMNSLRAEDTAVYYCARDPPITGTTGGDAFDIWGQGTMVTVSS
VL: not shown
Kd [2]: 0.0177 nM
koff [2]: 6.75e-05 s⁻¹
kon [2]: 3.81e+06 M⁻¹ s⁻¹
t½ [2]: 2.85 h

B21: mAb10937 (antibody, V domains shown)
VH: QITLKESGPTLVKPTQTLTLTCTFSGFSLSTNVVGVGWIRQPPGKALEWLALIYWNDDKRYSPSLKSRLTITKDTSKNQVVLTMTNMDPVDTATYYCAHGPTGDYFDYWGQGTLVTVSS
VL: not shown
Kd [2]: 0.0129 nM
koff [2]: 5.74e-05 s⁻¹
kon [2]: 4.47e+06 M⁻¹ s⁻¹
t½ [2]: 3.35 h

B22: mAb11004 (antibody, V domains shown)
VH: QVQLVESGGGVVQPGRSLRLSCVASGFTFSIYGMDWVRQAPGKGLEWVAVISYDGSNKYYADSVKGRFTISRDNSKNTLYLQMNSLRPEDTAVYYCAKDREAAADAFDIWGQGTMVTVSS
VL: DIQMTQSPSSVSASVGDRVTITCRASQGISSWLAWYQQKPGKAPKLLIYAASSLHSGVPSRFSGSGSGTDFTLTISSLQPEDFATYYCQQANSFRLTFGGGTKVEIKR
Kd [1]: 0.0921 nM
koff [1]: 6.4e-05 s⁻¹
kon [1]: 695000 M⁻¹ s⁻¹
t½ [1]: 3.01 h

B23: mAb10984 (antibody, V domains shown)
VH: EVQLVESGGGLVQPGGSLRLSCAASGLTVNRNYMSWVRQAPGKGLEWVSLIYSGGSTYYADSVKGRFTISRDNSKNTLYLQMNSLRLEDTAVYYCARGELGIPYGMDVWGQGTTVTVSS
VL: QSVLTQPPSVSAAPGQKVTISCSGSSSNIGNNYVSWYQQLPGTAPKLLIYDNNKRPSGIPDRFSGSKSGTSATLGITGLQTGDEADYYCGTWDSSLSAGVFGGGTKLTVLG
Kd [1]: 0.0286 nM
t½ [1]: 4.85 h
